This is an account of results in the Immune Epitope Database (IEDB).

Assay [1] has as its target HLA-A*01:01. As to the kind of experiment: IEDB peptide-MHC binding, purified MHC/direct/fluorescence; filed as Kd, often an IC50 or EC50 that approximates it; ≥ and ≤ were set here for values at or beyond the usual limits of such assays. The following applies: source organism: SARS-CoV1.
The target in another assay is HLA-B*15:01. The description is as above. The following applies: source organism: SARS-CoV1.
A further assay has as its target HLA-A*03:01. The description is as above.
Another assay addresses HLA-A*11:01. The description is as above.
For the next assay, the target named is HLA-B*07:02. The assay is described as above.
For the next assay, the target named is HLA-B*40:01. The description is as above.
A further assay addresses HLA-A*24:02. As to the kind of experiment: IEDB peptide-MHC binding, purified MHC/competitive/radioactivity; filed as Kd, often an IC50 or EC50 that approximates it; ≥ and ≤ were set here for values at or beyond the usual limits of such assays.
Assay [2] deals with HLA-A*01:01. The assay is described as above.
Another assay has as its target HLA-A*31:01. As to the kind of experiment: IEDB peptide-MHC binding, purified MHC/direct/fluorescence; filed as Kd, often an IC50 or EC50 that approximates it; ≥ and ≤ were set here for values at or beyond the usual limits of such assays. The following applies: source organism: Francisella tularensis subsp. holarctica LVS.
The target of assay [3] is HLA-A*02:01. The experiment in a line: IEDB peptide-MHC binding, purified MHC/competitive/fluorescence; ≥ and ≤ were set here for values at or beyond the usual limits of such assays.
Another assay has as its target HLA-A*23:01. The experiment in a line: IEDB peptide-MHC binding, purified MHC/competitive/radioactivity; filed as Kd, often an IC50 or EC50 that approximates it; ≥ and ≤ were set here for values at or beyond the usual limits of such assays.
In assay [4] the target is HLA-A*02:01. As to the kind of experiment: IEDB peptide-MHC binding, purified MHC/competitive/fluorescence; filed as Kd, often an IC50 or EC50 that approximates it; ≥ and ≤ were set here for values at or beyond the usual limits of such assays.
The next assay has as its target HLA-A*32:01. The experiment in a line: IEDB peptide-MHC binding, purified MHC/competitive/radioactivity; filed as Kd, often an IC50 or EC50 that approximates it; ≥ and ≤ were set here for values at or beyond the usual limits of such assays.
Another assay addresses HLA-A*69:01. As to the kind of experiment: IEDB peptide-MHC binding, purified MHC/direct/fluorescence; filed as Kd, often an IC50 or EC50 that approximates it; ≥ and ≤ were set here for values at or beyond the usual limits of such assays.
For a further assay, the target named is HLA-A*30:02. The experiment in a line: IEDB peptide-MHC binding, purified MHC/competitive/radioactivity; filed as Kd, often an IC50 or EC50 that approximates it; ≥ and ≤ were set here for values at or beyond the usual limits of such assays.
Another assay concerns the target HLA-B*44:02. The description is as above.
The target in the next assay is HLA-A*26:01. Described as above. The following applies: source organism: Dengue virus 2 Jamaica/1409/1983.
A further assay has as its target HLA-A*30:01. The description is as above.
For a further assay, the target named is HLA-B*58:01. As to the kind of experiment: IEDB peptide-MHC binding, purified MHC/direct/fluorescence; filed as Kd, often an IC50 or EC50 that approximates it; ≥ and ≤ were set here for values at or beyond the usual limits of such assays.
The target in another assay is HLA-B*27:05. The description is as above. The following applies: source organism: Mammarenavirus juninense.
The mark [5] stands for this setting: source organism: Dengue virus 2 Jamaica/1409/1983.
Where [6] appears, read: source organism: Dengue virus 3 Martinique/1243/1999.
Setting [7] is: source organism: Sudan ebolavirus.
Setting [8] is: source organism: Dengue virus 1 Brazil/97-11/1997.
[9] abbreviates: source organism: Orthohantavirus hantanense.
[10] abbreviates: source organism: Dengue virus 4 Philippines/H241/1956.
The mark [11] stands for this setting: source organism: Salmonella enterica subsp. enterica serovar Typhi.
The mark [12] stands for this setting: source organism: Vaccinia virus WR.
Setting [13] is: source organism: Vaccinia virus Copenhagen.
[14] abbreviates: source organism: Dengue virus 1 Singapore/S275/1990.

Usually Kd stands for the free concentration of one partner at which half of the binding sites on the other are occupied at equilibrium, for simple one-to-one binding. For VQTVRTQVY, the Kd with HLA-A*01:01 [1] was at least 24.7 µM; in the assay with HLA-B*15:01, 0.144 µM; with HLA-A*03:01 (source organism: SARS-CoV1), 6.62 µM; with HLA-A*11:01 (source organism: SARS-CoV1), at least 44.7 µM; with HLA-B*07:02 (source organism: SARS-CoV1), 16.7 µM; with HLA-B*40:01 (source organism: SARS-CoV1), at least 168 µM.
For the sequence KYQLAVTIM, the Kd with HLA-A*24:02 (setting [5]) came out at 0.0292 µM.
Consider LTSRENLLL, for which the Kd with HLA-A*01:01 [2] (setting [6]) was determined as 0.418 µM.
On to MFMMIFHFV, for which the Kd with HLA-A*03:01 (source organism: Francisella tularensis subsp. holarctica LVS) is at least 20 µM; with HLA-A*31:01, 12 µM.
By IC50 is commonly meant the concentration that gives 50% inhibition. The sequence GRLIWTLDA gave a concentration for half-maximal inhibition (IC50) with HLA-A*02:01 [3] (setting [7]) of at least 593 µM.
As for CYSQVNPLTL, the Kd in the assay with HLA-A*24:02 (setting [8]) was found to be 0.144 µM; in the assay with HLA-A*23:01 (setting [8]), 0.189 µM.
On to FLTCTDRSV, for which the Kd with HLA-A*02:01 [4] (source organism: Human alphaherpesvirus 1 strain 17) stood at 0.083 µM.
In the case of TLLMNELGV, the Kd with HLA-A*02:01 [4] (source organism: Influenza A virus (A/nt/60/1968(H3N2))) is 0.0007 µM.
As to RKDIQQWEPS, the Kd with HLA-A*32:01 (setting [5]) stood at 3.87 µM.
NAHEGQLVI: the Kd with HLA-B*07:02 (setting [9]) was at least 25.3 µM; with HLA-A*69:01 (setting [9]) it was 3.4 µM.
PSVEVKLPDY: the Kd was 7.51 µM with HLA-A*01:01 [2] (setting [10]) and 0.162 µM in the assay with HLA-A*30:02 (setting [10]).
In the case of KHMIAGVLF, the Kd with HLA-A*24:02 (source organism: Dengue virus 3 Singapore/8120/1995) was 0.683 µM.
As for AGEKALKLSW, in the assay with HLA-B*44:02 (setting [8]), the Kd worked out at 0.576 µM.
Regarding DTITYKCPLL, the Kd with HLA-A*26:01 was found to be 2.1 µM; in the assay with HLA-A*30:01 (setting [5]) it was 1.14 µM.
For the sequence GYSQIGAGVY, in the assay with HLA-A*30:02 (setting [5]), the Kd worked out at 0.127 µM.
As to AAGLPAIFV, the Kd with HLA-A*11:01 (setting [11]) came to 3.86 µM; with HLA-A*69:01 (setting [11]), 1.07 µM.
Take APRALLLLL: the Kd in the assay with HLA-B*07:02 (source organism: Homo sapiens) came out at 2.1 µM.
As to GPITTLWEGS, the Kd with HLA-A*32:01 (setting [6]) was found to be 2.87 µM.
For the sequence KSFFSRLNW, the Kd in the assay with HLA-B*58:01 (source organism: Influenza A virus (A/Yilan/515/03(H3N2))) stood at 0.139 µM.
Sequence LEDSHNGKL registered a Kd with HLA-B*40:01 (source organism: Influenza A virus (A/Denver/1957(H1N1))) of 0.073 µM.
As for NEELITEQM, in the assay with HLA-B*44:02 (setting [10]), the Kd is 0.281 µM.
In the assay with HLA-A*02:01 [4] (source organism: Variola virus), SLYNLVKSSV returned a Kd of 0.0032 µM.
As for NAAGIAWIP, the half-inhibitory concentration (IC50) in the assay with HLA-A*02:01 [3] (setting [7]) stood at 64.5 µM.
Regarding ETNYYIHPI, the Kd with HLA-A*32:01 (setting [12]) is 0.368 µM.
In the case of LHQVFGAIY, in the assay with HLA-A*30:02 (setting [5]), the Kd is 0.0427 µM.
Consider YWVSCGTGNI, for which the Kd in the assay with HLA-A*23:01 (setting [8]) was 0.165 µM.
Regarding TLNASQYAN, in the assay with HLA-A*02:01 [3] (setting [13]), the IC50 was at least 143 µM.
For the sequence TTRHRKPTY, the Kd was determined as 0.658 µM in the assay with HLA-A*30:02 (setting [10]) and 1.18 µM in the assay with HLA-A*30:01 (setting [10]).
Regarding MMPIKSIVTL, the Kd with HLA-A*02:01 [4] (source organism: Variola virus) was determined as 0.0051 µM.
As for LMYNLLTII, the Kd with HLA-A*32:01 (setting [13]) is 0.0302 µM.
Turning to HIPEGETTL, the IC50 with HLA-A*02:01 [3] (setting [7]) was 56.2 µM.
As to RWFVERNMVT, the Kd with HLA-A*24:02 (setting [5]) worked out at 0.855 µM.
In the assay with HLA-A*02:01 [4] (setting [12]), LLPDSDVFV registered a Kd of 0.0011 µM.
As for RRDLKLVDV, in the assay with HLA-B*27:05, the Kd was at least 20 µM.
For the sequence NWASVKKDLI, in the assay with HLA-A*23:01 (setting [6]), the Kd came to 0.287 µM.
For SEMAEALKG, the Kd with HLA-B*44:02 (setting [8]) turned out to be 0.0145 µM.
With FLIKFLLIH, in the assay with HLA-A*02:01 [3] (source organism: Zaire ebolavirus), the IC50 is at least 296 µM.
Take RFLEFEALGF: in the assay with HLA-A*23:01 (setting [10]), the Kd was found to be 0.00144 µM.
As to DPSGAYFAW, the Kd came out at 1.57 µM with HLA-B*58:01 (source organism: Homo sapiens) and 17.6 µM in the assay with HLA-B*07:02 (source organism: Homo sapiens).
In the case of LWATLLSLTF, the Kd worked out at 0.193 µM with HLA-A*24:02 (setting [14]) and 0.0253 µM in the assay with HLA-A*23:01 (setting [14]).
